Source: article PMC5934386, “Active Site Gate Dynamics Modulate the Catalytic Activity of the Ubiquitination Enzyme E2-25K” (Scientific Reports, 2018)

Biological target: T1, Human ubiquitin (human, UniProt P0CG48 1-76)
T1 construct: ubiquitin, human; the cut product of the ubiquitin precursors; also called acceptor Ub; source: bought: BostonBiochem (lyophilized)
Test: NMR titration; 2D 1H-15N HSQC at 600 MHz; [U-15N]-E2-25K at 417-428 uM with ubiquitin at 0, 200, 400, 560, 790 and 1600 uM in six samples; PBS buffer (20 mM sodium phosphate, 150 mM NaCl, DTT, pH 7.4); chemical shift changes fit to a 1:1 binding isotherm; kon and koff from 15N lineshape analysis of G173 (Bloch-McConnell, two site exchange)
Conditions: both partners purified

B1: Human E2-25K (enzyme, UniProt P61086 1-200, looked up)
chain: MANIAVQRIKREFKEVLKSEETSKNQIKVDLVDENFTELRGEIAGPPDTPYEGGRYQLEIKIPETYPFNPPKVRFITKIWHPNISSVTGAICLDILKDQWAAAMTLRTVLLSLQALLAAAEPDDPQDAVVANQYKQNPEMFKQTARLWAHVYAGAPVSSPEYTKKIENLCAMGFDRNAVIVALSSKSWDVETATELLLSN
notes: E2-25K (ubiquitin-conjugating enzyme, UBC core domain and UBA domain), human; called 'intact human E2-25K' in the results; cloned into pHis-parallel1; [U-15N]-labelled for the NMR titration; also called wildtype E2-25K; intact human E2-25K; source: E. coli BL21(DE3)-RIPL, purified (His-prep column, TEV cleavage, Superdex 75)
For B1, which Kd is on record?
The Kd was 206 ± 30 µM.

What about the koff of the same binder?
Its koff is 5890 s⁻¹.

What about the kon of the same binder?
The kon was 2.9e+07 M⁻¹ s⁻¹.
